The values that follow come from publication PMC3100534 (Nanomedicine : nanotechnology, biology, and medicine, 2011).

The conditions of series [1]: cited from earlier work.
Series [2] is classed as physicochemical. The settings on record: N = 90/x, ~90 DSPE-PEG2000 monomers per SSM, x = lipid molecules at saturation.

With Human neuropeptide Y [NPY], the half-life in vivo entry in series [1] is “minutes”. Further, in series [2], the “maximal number of NPY molecules that could self-associate with one SSM” value was “three”.
